According to the Human Domainome abundance scans (Beltran et al. 2025):
± gives the uncertainty stated by the source.

B1: Chromodomain-helicase-DNA-binding protein 4, residues 623 to 675; numbered along this chain, Q14839 (parent)
chain: MIHRILNHSVDKKGHVHYLIKWRDLPYDQASWESEDVEIQDYDLFKQSYWNHR

Variants of: B1
Assay: abundance fitness (aPCA) (normalised: wild type 0, dead -1); higher = more abundant; growth selection in yeast, the domain comes from the species named
Conditions: Homo sapiens

Abundance fitness, by site and new letter:
W32: E -0.737 ± 0.17; T -0.955 ± 0.14; H -0.788 ± 0.15; I -0.71 ± 0.14; Q -0.75 ± 0.15; Y -0.909 ± 0.17; V -0.732 ± 0.11; S -0.933 ± 0.12; D -0.812 ± 0.18; P -0.755 ± 0.12; A -0.997 ± 0.15; F -0.93 ± 0.18; M -0.827 ± 0.18; L -0.732 ± 0.11; K -1.01 ± 0.19; C -0.783 ± 0.12; N -0.776 ± 0.14; R -0.724 ± 0.087; G -0.88 ± 0.11
Y27: M -0.248 ± 0.13; L 0.156 ± 0.075; V 0.097 ± 0.11; Q 0.197 ± 0.14; D 0.133 ± 0.11; K -0.013 ± 0.14; E -0.241 ± 0.19; C -0.171 ± 0.13; P 0.018 ± 0.092; A -0.003 ± 0.11; I 0.21 ± 0.089; G -0.201 ± 0.16; F -0.118 ± 0.085; W -0.18 ± 0.26; N 0.042 ± 0.11; T 0.077 ± 0.086; H 0.068 ± 0.089; R 0.04 ± 0.089
D24: N -0.077 ± 0.1; I -0.725 ± 0.16; M -0.552 ± 0.13; W -0.353 ± 0.13; S -0.294 ± 0.09; C -0.588 ± 0.13; H -0.142 ± 0.16; Y -0.53 ± 0.12; V -0.558 ± 0.1; K -0.461 ± 0.14; G -0.115 ± 0.086; F -0.423 ± 0.14; T -0.309 ± 0.1; E -0.014 ± 0.097; A -0.335 ± 0.12; R -0.487 ± 0.094; Q -0.439 ± 0.14; L -0.535 ± 0.095
P26: D -0.163 ± 0.17; I -0.907 ± 0.27; G -0.019 ± 0.099; E -0.562 ± 0.14; Q -0.602 ± 0.19; W -0.662 ± 0.15; K -0.59 ± 0.14; L -0.62 ± 0.11; H -0.274 ± 0.25; N -0.201 ± 0.15; Y -0.339 ± 0.22; M -0.761 ± 0.19; F -0.749 ± 0.48; A -0.751 ± 0.17; S -0.19 ± 0.1; C -0.701 ± 0.22; V -0.762 ± 0.14; R -0.533 ± 0.094; T -0.392 ± 0.15
L25: K 0.206 ± 0.11; Y -0.325 ± 0.12; V -0.249 ± 0.085; A -0.256 ± 0.1; P -0.398 ± 0.12; N -0.143 ± 0.11; Q -0.045 ± 0.12; H -0.195 ± 0.13; M 0.096 ± 0.12; R 0.059 ± 0.09; S -0.125 ± 0.085; I -0.344 ± 0.12; E -0.363 ± 0.12; T -0.013 ± 0.096; F -0.254 ± 0.12
Q29: H -0.268 ± 0.17; W -0.589 ± 0.14; T -0.702 ± 0.13; E -0.262 ± 0.15; L -0.239 ± 0.081; S -0.27 ± 0.089; M -0.4 ± 0.15; C -0.186 ± 0.12; P -0.802 ± 0.14; D -0.345 ± 0.16; Y -0.493 ± 0.19; K 0.101 ± 0.14; G -0.608 ± 0.12; R -0.118 ± 0.086; F -0.657 ± 0.14; N -0.48 ± 0.16; I -1.17 ± 0.27; A -0.105 ± 0.11
D28: C -0.025 ± 0.14; N -0.028 ± 0.11; V -0.462 ± 0.09; Y -0.504 ± 0.14; R -0.169 ± 0.096; G -0.179 ± 0.097; K -0.124 ± 0.12; Q -0.354 ± 0.14; F -0.553 ± 0.13; M -0.685 ± 0.15; I -0.664 ± 0.16; W -0.333 ± 0.18; A 0.116 ± 0.089; L -0.55 ± 0.1; H -0.139 ± 0.15; T -0.098 ± 0.12
E33: F -0.528 ± 0.13; H -0.266 ± 0.16; G -0.781 ± 0.17; D -0.947 ± 0.24; C 0.13 ± 0.14; A -0.109 ± 0.11
R23: P -0.835 ± 0.17; M -0.265 ± 0.13; W -0.183 ± 0.12; T -0.189 ± 0.12; N -0.5 ± 0.12; Y -0.139 ± 0.12; S -0.236 ± 0.091; Q -0.12 ± 0.13
S31: A -0.817 ± 0.13; T 0.067 ± 0.09; Q -0.646 ± 0.14; M -1.01 ± 0.17; N -0.604 ± 0.14; C -0.551 ± 0.15; D -0.854 ± 0.16; V -0.61 ± 0.11; H -0.916 ± 0.17; G -0.885 ± 0.14; I -0.702 ± 0.13; R -0.656 ± 0.097; E -0.784 ± 0.16; W -0.767 ± 0.2; Y -0.711 ± 0.13
A30: C -0.136 ± 0.29; S -0.325 ± 0.16; N -0.347 ± 0.25; H -0.645 ± 0.28; W -0.465 ± 0.31; E -0.717 ± 0.41; F -0.586 ± 0.24; L -0.813 ± 0.2; G -0.977 ± 0.44; Q -0.866 ± 0.31; R -0.401 ± 0.16; I 0.111 ± 0.27; P -0.356 ± 0.15; T -0.653 ± 0.19; V -0.541 ± 0.28
